# Paper PMC7060085 (ACS applied materials & interfaces, 2019)
# Target: the molecule itself
# Assay: SEC
protein,measurement,value
"Physalis mottle virus (PhMV) virus-like particle, native (unmodified recombinant coat protein) (natural protein) MDSSEVVKVKQASIPAPGSILSQPNTEQSPAIVLPFQFEATTFGTAETAAQVSLQTADPITKLTAPYRHAQIVECKAILTPTDLAVSNPLTVYLAWVPANSPATPTQILRVYGGQSFVLGGAISAAKTIEVPLNLDSVNRMLKDSVTYTDTPKLLAYSRAPTNPSKIPTASIQISGRIRLSKPMLIAN",binding result,binds
